Target: T1, MyoD (Epinephelus coioides (orange-spotted …, UniProt D9IV55 1-269))
T1 sequence: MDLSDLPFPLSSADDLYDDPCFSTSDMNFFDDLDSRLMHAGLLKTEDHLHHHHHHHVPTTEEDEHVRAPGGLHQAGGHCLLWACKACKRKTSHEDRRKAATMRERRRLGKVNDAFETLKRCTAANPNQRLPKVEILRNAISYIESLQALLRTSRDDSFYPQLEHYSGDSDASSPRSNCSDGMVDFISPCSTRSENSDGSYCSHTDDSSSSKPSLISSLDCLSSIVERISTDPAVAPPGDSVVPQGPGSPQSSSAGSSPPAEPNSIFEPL
Experiment: EMSA; 2 ug MyoD, increasing probe, poly[d(I-C)] 0.1 ng, 5 mM Mg2+; 20 mM HEPES pH 7.9, 50 mM KCl, 5 mM MgCl2, 0.5 mM EDTA, 5 mM DTT, 5% glycerol, 0.1 ng poly[d(I-C)], 30 min room temperature; 6.5% native PAGE 0.5X TBE
Settings: protein: recombinant; tags: C-terminal pET-29a His tag likely (NdeI/XhoI primers, no stop codon); chain copies: 2; label: Cy3; blunt

B1: E-box E6 probe (E6F/E6R) (dsDNA)
DNA 1: CTGTATGTGGATCATTTGTGTCTTTGGTGG
DNA 2: CCACCAAAGACACAAATGATCCACATACAG
- binding result: binds
